These results are taken from the supplement of paper PMC10567573.

B1: PTPRD (parent)
chain: ITWFKDFLPVDTSNNNGRIKQLRS
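Note: lentivirally expressed fusions sorted by FACS into six bins by GFP to DsRed ratio, PSI derived from sequencing read proportions per bin multiplied by bin number.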

Variants of B1 are the subject of the data set. The data set can be described thus: protein stability index of a GFP-peptide fusion (GPS, HEK-293T) (PSI 1-6); higher = more stable. The settings on record: c terminus: a fixed tail appended.
As to ITWFKDFLPVDTSNNNNRIKQLRS [G17N], the protein stability index is 1.86.

For the variant ITWFKDFLPWDTSNNNGRIKQLRS [V10W], the protein stability index is 2.62.

For the variant ITWFKDFLPDDTSNNNGRIKQLRS [V10D], the protein stability index was found to be 2.39.

ITWFKDFLPMDTSNNNGRIKQLRS [V10M]: the protein stability index amounted to 1.86.

With ITWFKDFLPHDTSNNNGRIKQLRS [V10H], the protein stability index is 2.07.

ITWFKDFLPNDTSNNNGRIKQLRS [V10N]: the protein stability index worked out at 2.34.

As to ITWFKDFLPYDTSNNNGRIKQLRS [V10Y], the protein stability index was 1.89.

Turning to ITWFKDFLPGDTSNNNGRIKQLRS [V10G], the protein stability index was 2.28.

Take ITWFKDFLPKDTSNNNGRIKQLRS [V10K]: the protein stability index was 2.07.

For ITWFKDFLPTDTSNNNGRIKQLRS [V10T], the protein stability index is 1.76.

ITWFKDFLPQDTSNNNGRIKQLRS [V10Q]: the protein stability index is 2.17.

For ITWFKDFLPPDTSNNNGRIKQLRS [V10P], the protein stability index came out at 2.26.

Turning to ITWFKDFLPIDTSNNNGRIKQLRS [V10I], the protein stability index was determined as 2.49.

For the variant ITWFKDFLPLDTSNNNGRIKQLRS [V10L], the protein stability index came to 1.95.

As to ITWFKDFLPRDTSNNNGRIKQLRS [V10R], the protein stability index was 1.82.

As for ITWFKDFLPFDTSNNNGRIKQLRS [V10F], the protein stability index was determined as 2.65.

Consider ITWFKDFLPEDTSNNNGRIKQLRS [V10E], for which the protein stability index was found to be 2.23.

As to ITWFKDFLPSDTSNNNGRIKQLRS [V10S], the protein stability index was 2.15.

ITWFKDFLPVDTSNINGRIKQLRS [N15I]: the protein stability index was 1.58.

Turning to ITWFKDFLPVDTSNPNGRIKQLRS [N15P], the protein stability index came to 1.82.

As for ITWFKDFLPVDTSNWNGRIKQLRS [N15W], the protein stability index amounted to 2.17.

On to ITWFKDFLPVDTSNVNGRIKQLRS [N15V], for which the protein stability index worked out at 1.74.

ITWFKDFLPVDTSNFNGRIKQLRS [N15F]: the protein stability index came out at 1.6.

On to ITWFKDFLPVDTSNHNGRIKQLRS [N15H], for which the protein stability index is 1.48.

Consider ITWFKDFLPVDTSNSNGRIKQLRS [N15S], for which the protein stability index was found to be 1.67.

As to ITWFKDFLPVDTSNMNGRIKQLRS [N15M], the protein stability index was found to be 1.8.

As for ITWFKDFLPVDTSNRNGRIKQLRS [N15R], the protein stability index was 1.71.

ITWFKDFLPVDTSNKNGRIKQLRS [N15K]: the protein stability index was 2.54.

In the case of ITWFKDFLPVDTSNQNGRIKQLRS [N15Q], the protein stability index is 1.76.

For the variant ITWFKDFLPVDTSNCNGRIKQLRS [N15C], the protein stability index was determined as 2.26.

As to ITWFKDFLPVDTSNENGRIKQLRS [N15E], the protein stability index was determined as 1.69.

Take ITWFKDFLPVDTSNTNGRIKQLRS [N15T]: the protein stability index is 3.44.

With ITWFKDFLPVDTSNGNGRIKQLRS [N15G], the protein stability index came out at 1.72.

As for ITWFKDFLPVDTSNANGRIKQLRS [N15A], the protein stability index is 1.61.

With ITWFKDFLPVDTSNYNGRIKQLRS [N15Y], the protein stability index amounted to 1.87.

Take ITWFKDFLPVDTSNDNGRIKQLRS [N15D]: the protein stability index worked out at 1.74.

On to ITWFKDFLPVDTSNLNGRIKQLRS [N15L], for which the protein stability index came to 2.37.

Consider ITWFKDFLPVDTSNNIGRIKQLRS [N16I], for which the protein stability index came to 2.32.

On to ITWFKDFLPVDTSNNLGRIKQLRS [N16L], for which the protein stability index was found to be 1.73.

ITWFKDFLPVDTSNNYGRIKQLRS [N16Y]: the protein stability index worked out at 1.71.

For ITWFKDFLPVDTSNNPGRIKQLRS [N16P], the protein stability index turned out to be 2.32.

On to ITWFKDFLPVDTSNNVGRIKQLRS [N16V], for which the protein stability index came out at 2.62.

On to ITWFKDFLPVDTSNNWGRIKQLRS [N16W], for which the protein stability index amounted to 2.17.

For the variant ITWFKDFLPVDTSNNHGRIKQLRS [N16H], the protein stability index is 1.58.

Regarding ITWFKDFLPVDTSNNRGRIKQLRS [N16R], the protein stability index was found to be 1.65.

In the case of ITWFKDFLPVDTSNNEGRIKQLRS [N16E], the protein stability index amounted to 2.02.

Turning to ITWFKDFLPVDTSNNSGRIKQLRS [N16S], the protein stability index was 1.98.

As for ITWFKDFLPVDTSNNDGRIKQLRS [N16D], the protein stability index is 1.88.

Regarding ITWFKDFLPVDTSNNFGRIKQLRS [N16F], the protein stability index came to 1.82.

For ITWFKDFLPVDTSNNGGRIKQLRS [N16G], the protein stability index stood at 1.7.

As for ITWFKDFLPVDTSNNMGRIKQLRS [N16M], the protein stability index is 1.43.

For the variant ITWFKDFLPVDTSNNCGRIKQLRS [N16C], the protein stability index came out at 2.09.

Consider ITWFKDFLPVDTSNNTGRIKQLRS [N16T], for which the protein stability index was found to be 2.38.

Take ITWFKDFLPVDTSNNKGRIKQLRS [N16K]: the protein stability index was determined as 1.98.

For ITWFKDFLPVDTSNNQGRIKQLRS [N16Q], the protein stability index worked out at 2.26.

On to ITWFKDFLPVDTSNNAGRIKQLRS [N16A], for which the protein stability index is 1.78.

Regarding ITWFKDFLPVDTSNNNGREKQLRS [I19E], the protein stability index was determined as 1.95.

With ITWFKDFLPVDTSNNNGRGKQLRS [I19G], the protein stability index came out at 2.24.

On to ITWFKDFLPVDTSNNNGRSKQLRS [I19S], for which the protein stability index amounted to 1.54.

Take ITWFKDFLPVDTSNNNGRRKQLRS [I19R]: the protein stability index stood at 1.84.

For the variant ITWFKDFLPVDTSNNNGRKKQLRS [I19K], the protein stability index came to 2.33.

Take ITWFKDFLPVDTSNNNGRVKQLRS [I19V]: the protein stability index came to 1.73.

With ITWFKDFLPVDTSNNNGRPKQLRS [I19P], the protein stability index amounted to 1.69.

Turning to ITWFKDFLPVDTSNNNGRLKQLRS [I19L], the protein stability index was found to be 2.07.

As for ITWFKDFLPVDTSNNNGRWKQLRS [I19W], the protein stability index was determined as 1.46.

With ITWFKDFLPVDTSNNNGRQKQLRS [I19Q], the protein stability index stood at 2.57.

For the variant ITWFKDFLPVDTSNNNGRYKQLRS [I19Y], the protein stability index stood at 2.13.

Turning to ITWFKDFLPVDTSNNNGRNKQLRS [I19N], the protein stability index stood at 1.95.

As for ITWFKDFLPVDTSNNNGRCKQLRS [I19C], the protein stability index came out at 1.69.

For the variant ITWFKDFLPVDTSNNNGRTKQLRS [I19T], the protein stability index worked out at 2.23.

For ITWFKDFLPVDTSNNNGRMKQLRS [I19M], the protein stability index came to 2.04.

Consider ITWFKDFLPVDTSNNNGRDKQLRS [I19D], for which the protein stability index came out at 2.08.

Consider ITWFKDFLPVDTSNNNGRFKQLRS [I19F], for which the protein stability index was found to be 2.25.

Turning to ITWFKDFLPVDTSNNNGRAKQLRS [I19A], the protein stability index is 1.72.

Consider ITWFKDFLPVDTSNNNGRHKQLRS [I19H], for which the protein stability index came to 1.53.

Regarding ITWFKDFLPVDTSNNNGCIKQLRS [R18C], the protein stability index came to 2.83.

Regarding ITWFKDFLPVDTSNNNGYIKQLRS [R18Y], the protein stability index came to 2.1.

On to ITWFKDFLPVDTSNNNGMIKQLRS [R18M], for which the protein stability index turned out to be 1.63.

On to ITWFKDFLPVDTSNNNGEIKQLRS [R18E], for which the protein stability index came to 1.87.

Take ITWFKDFLPVDTSNNNGVIKQLRS [R18V]: the protein stability index worked out at 2.33.

With ITWFKDFLPVDTSNNNGQIKQLRS [R18Q], the protein stability index is 2.24.

ITWFKDFLPVDTSNNNGLIKQLRS [R18L]: the protein stability index worked out at 1.45.

As for ITWFKDFLPVDTSNNNGHIKQLRS [R18H], the protein stability index came to 2.77.

For ITWFKDFLPVDTSNNNGFIKQLRS [R18F], the protein stability index was found to be 2.04.

ITWFKDFLPVDTSNNNGDIKQLRS [R18D]: the protein stability index was 1.83.

For ITWFKDFLPVDTSNNNGSIKQLRS [R18S], the protein stability index worked out at 1.95.

In the case of ITWFKDFLPVDTSNNNGWIKQLRS [R18W], the protein stability index was 1.62.

Take ITWFKDFLPVDTSNNNGNIKQLRS [R18N]: the protein stability index is 1.97.

ITWFKDFLPVDTSNNNGAIKQLRS [R18A]: the protein stability index worked out at 1.8.

Consider ITWFKDFLPVDTSNNNGKIKQLRS [R18K], for which the protein stability index was found to be 1.68.

As to ITWFKDFLPVDTSNNNGIIKQLRS [R18I], the protein stability index turned out to be 1.74.

For the variant ITWFKDFLPVDTSNNNGTIKQLRS [R18T], the protein stability index turned out to be 1.93.

For ITWFKDFLPVDTSNNNGPIKQLRS [R18P], the protein stability index came out at 2.08.

For ITWFKDFLPVDTSNNNGGIKQLRS [R18G], the protein stability index worked out at 2.73.
